The target of assay [1] is T1, N-terminally flag tagged full-length GFRAL on transiently transfected HEK293F cells (Homo sapiens (Human), UniProt Q6UXV0 19-394).
T1 construct: also called GFRAL-overexpressing HEK293F cells; GFRAL-expressing cells
T1 sequence: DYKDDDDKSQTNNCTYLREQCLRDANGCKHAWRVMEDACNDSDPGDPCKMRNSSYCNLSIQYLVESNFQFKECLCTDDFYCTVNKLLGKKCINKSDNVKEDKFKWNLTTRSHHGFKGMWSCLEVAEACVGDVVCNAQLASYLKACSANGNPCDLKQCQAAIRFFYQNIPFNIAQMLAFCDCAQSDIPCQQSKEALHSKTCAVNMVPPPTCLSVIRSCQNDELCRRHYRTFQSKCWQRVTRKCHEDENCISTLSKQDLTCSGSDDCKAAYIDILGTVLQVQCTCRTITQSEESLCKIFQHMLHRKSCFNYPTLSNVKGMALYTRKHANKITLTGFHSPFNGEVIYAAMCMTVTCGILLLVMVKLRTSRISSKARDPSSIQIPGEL
Nature of the assay: FACS on GFRAL-expressing HEK293F cells, dose response.

For assay [2], the target named is T2, GFRα2 (Retrogenix library, on HEK293 cells) (human, UniProt O00451 22-444).
T2 construct: whole, on cells
T2 sequence (looked up): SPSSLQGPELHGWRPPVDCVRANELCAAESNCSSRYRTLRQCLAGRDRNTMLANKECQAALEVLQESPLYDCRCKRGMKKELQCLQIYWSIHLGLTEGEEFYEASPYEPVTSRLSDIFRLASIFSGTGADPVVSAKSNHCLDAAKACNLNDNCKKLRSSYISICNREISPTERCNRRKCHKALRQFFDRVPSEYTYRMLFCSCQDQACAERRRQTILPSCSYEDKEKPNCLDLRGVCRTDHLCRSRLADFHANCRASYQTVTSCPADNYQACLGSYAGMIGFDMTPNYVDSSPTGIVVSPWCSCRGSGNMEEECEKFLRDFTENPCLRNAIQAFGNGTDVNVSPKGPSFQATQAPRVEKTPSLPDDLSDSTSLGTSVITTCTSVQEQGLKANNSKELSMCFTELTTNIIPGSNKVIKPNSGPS
As to the kind of experiment: Retrogenix cell microarray on HEK293 cells. The protocol: (§1) In parallel, two studies were performed at Retrogenix Ltd (Whaley Bridge, High Peak, Derbyshire, UK) using Retrogenix' Cell Microarray technology to screen for binding partners for the Fc-GDF15 fusion molecule. Two studies were performed to screen Retrogenix's plasma membrane protein library, first on 3500 proteins and second on an additional 993 proteins, with total number of proteins screened being 4493. A background screen was performed prior to the primary screen to detect the background level of binding of the test ligand Fc-GDF15 at 2, 5, and 20 ug/ml with blank slides coated with live HEK293 cells and detected by using an AlexaFluor647 anti-Fc antibody. In the primary screen, vectors encoding each full-length human plasma membrane protein in the library were arrayed in duplicates on Retrogenix's cell microarray slides (referred to as ‘slide-set’). Three replicate slide-set were used in the primary screen. Control expression vector (pIRES-hEGFR-IRES-ZsGreen1) was spotted in quadruplicate on every slide to ensure that a minimal threshold of transfection efficiency had been achieved or exceeded on every slide. HEK293 cells were used for reverse transfection in live conditions. The test ligand Fc-GDF15 was added at the concentration of 20 ug/ml to each slide set. After the addition of test ligand, cell fixation was performed and the AlexaFluor647 anti-Fc antibody was used for binding detection. Fluorescent images were analyzed using ImageQuant software (GE) and a protein ‘hit’ is defined as a duplicate spot showing a raised signal compared to background levels by visual inspection using the images gridded on the ImageQuant software. Hits identified in the primary screen were tested in a confirmation screen, where all vectors encoding the hits in at least one of the three replicate primary screening slide-sets were arrayed on new slides. Confirmation screening was performed similar to the primary screening, with the addition of control samples for binding Fc. Binding of cells overexpressing CD86 to human CTLA4 fused to human Fc, served as a positive control, and binding to Fc alone served as a negative control.

The target in assay [3] is T3, GFRα3 (Retrogenix library, on HEK293 cells) (human, UniProt O60609 32-374).
T3 construct: whole, on cells
T3 sequence (looked up): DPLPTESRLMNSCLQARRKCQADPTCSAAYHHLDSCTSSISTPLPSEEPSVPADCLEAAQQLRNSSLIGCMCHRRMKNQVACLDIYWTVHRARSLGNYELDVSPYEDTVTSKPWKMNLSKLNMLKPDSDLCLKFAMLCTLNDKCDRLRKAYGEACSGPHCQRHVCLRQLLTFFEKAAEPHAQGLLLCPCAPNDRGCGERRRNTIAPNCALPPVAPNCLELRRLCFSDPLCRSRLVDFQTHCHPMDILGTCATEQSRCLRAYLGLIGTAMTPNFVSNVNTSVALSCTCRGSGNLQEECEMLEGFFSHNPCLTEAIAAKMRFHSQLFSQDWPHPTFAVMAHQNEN
As to the kind of experiment: Retrogenix cell microarray on HEK293 cells. The protocol:
as §1

Assay [4] concerns the target T4, GFRα4 (Retrogenix library, on HEK293 cells) (human, UniProt Q9GZZ7 21-278).
T4 construct: whole, on cells
T4 sequence (looked up): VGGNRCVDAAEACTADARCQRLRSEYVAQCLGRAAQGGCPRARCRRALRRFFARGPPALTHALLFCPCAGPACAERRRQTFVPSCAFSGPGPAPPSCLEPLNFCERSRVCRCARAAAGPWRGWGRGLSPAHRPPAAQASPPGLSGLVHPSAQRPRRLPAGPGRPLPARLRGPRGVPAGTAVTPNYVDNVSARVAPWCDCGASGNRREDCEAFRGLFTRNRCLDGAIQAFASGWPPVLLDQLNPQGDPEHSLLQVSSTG
Nature of the assay: Retrogenix cell microarray on HEK293 cells. As to the method: as §1

Assay [5] deals with T5, GFRα1 (Retrogenix library, on HEK293 cells) (human, UniProt P56159 25-429).
T5 construct: whole, on cells
T5 sequence (looked up): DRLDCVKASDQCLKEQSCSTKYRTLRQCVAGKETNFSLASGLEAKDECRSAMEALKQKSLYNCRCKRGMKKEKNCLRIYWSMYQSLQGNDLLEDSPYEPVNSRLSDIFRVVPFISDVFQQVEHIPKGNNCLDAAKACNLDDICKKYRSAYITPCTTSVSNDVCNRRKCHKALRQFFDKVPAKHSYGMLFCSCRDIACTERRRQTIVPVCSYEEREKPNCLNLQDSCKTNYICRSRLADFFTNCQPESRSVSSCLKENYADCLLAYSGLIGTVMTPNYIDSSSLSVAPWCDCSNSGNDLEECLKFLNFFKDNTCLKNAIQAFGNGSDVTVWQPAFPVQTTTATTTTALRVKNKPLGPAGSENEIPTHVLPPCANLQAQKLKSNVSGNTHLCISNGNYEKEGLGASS
Nature of the assay: Retrogenix cell microarray on HEK293 cells. The protocol: as §1

The results in this text go back to patent US20190234935A1 (Janssen / Centocor, published 2019).

B1: heterodimeric Fc-GDF15 fusion molecule (Fc fusion)
chain 1: CPPCPAPEAAGGPSVFLFPPKPKDTLMISRTPEVTCVVVDVSQEDPEVQFNWYVDGVEVHNAKTKPREEQFNSTYRVVSVLTVLHQDWLNGKEYKCKVSNKGLPSSIEKTISKAKGQPREPQVYTLPPSQEEMTKNQVSLSCAVKGFYPSDIAVEWESNGQPENNYKTTPPVLDSDGSFFLVSRLTVDKSRWQEGNVFSCSVMHEALHNHYTQKSLSLSLGKGSGGGARNGDHCPLGPGRCCRLHTVRASLEDLGWADWVLSPREVQVTMCIGACPSQFRAANMHAQIKTSLHRLKPDTVPAPCCVPASYNPMVLIQKTDTGVSLQTYDDLLAKDCHCI
chain 2: CPPCPAPEAAGGPSVFLFPPKPKDTLMISRTPEVTCVVVDVSQEDPEVQFNWYVDGVEVHNAKTKPREEQFNSTYRVVSVLTVLHQDWLNGKEYKCKVSNKGLPSSIEKTISKAKGQPREPQVYTLPPSQEEMTKNQVSLWCLVKGFYPSDIAVEWESNGQPENNYKTTPPVLDSDGSFFLYSRLTVDKSRWQEGNVFSCSVMHEALHNHYTQKSLSLSLGK
notes: also called Fc-GDF15 ligand
Broadly, the EC50 is the concentration needed to bring the measured effect to its halfway point. Regarding B1, the response in assay [1] was half-maximal at 258 pM (EC50). Besides, the binding result in assay [2], in assay [3], in assay [4] and in assay [5] was “no binding (tested: 20 ug/ml)” throughout.
